Results as given in US10400249B2, “HPPD variants and methods of use” (priority 2014, dated 2019).
Numbering of substitutions follows the chain as printed. Names may count otherwise.

B1: K131: PfHPPD variant E335P, G336Y, K339A, A340Q (protein)
chain: MADLYENPMGLMGFEFIEFASPTPGTLEPIFEIMGFTKVATHRSKNVHLYRQGEINLILNNEPNSIASYFAAEHGPSVCGMAFRVKDSQKAYNRALELGAQPIHIDTGPMELNLPAIKGIGGAPLYLIDRFGEGSSIYDIDFVYLEGVERNPVGAGLKVIDHLTHNVYRGRMVYWANFYEKLFNFREARYFDIKGEYTGLTSKAMSAPDGMIRIPLNEESSKGAGQIEEFLMQFNGEGIQHVAFLTDDLVKTWDALKKIGMRFMTAPPDTYYEMLEGRLPDHGEPVDQLQARGILLDGSSVEGDKRLLLQIFSETLMGPVFFEFIQRKGDDGFGPYNFAQLFESIERDQVRRGVLTAD
modifications: HPPD variant - K131
notes: PfHPPD variant E335P, G336Y, K339A, A340Q
B2: K255: PfHPPD variant P215A, E335P, G336F, A340E (protein)
chain: B1 chain with P215A, Y336F, A339K, Q340E
modifications: HPPD variant - K255
notes: PfHPPD variant P215A, E335P, G336F, A340E
B3: K258: PfHPPD variant P215N, E335P, G336F, A340E (protein)
chain: B1 chain with P215N, Y336F, A339K, Q340E
modifications: HPPD variant - K258
notes: PfHPPD variant P215N, E335P, G336F, A340E
B4: K132: PfHPPD variant E335P, G336Y, A340E (protein)
chain: B1 chain with A339K, Q340E
modifications: HPPD variant - K132
notes: PfHPPD variant E335P, G336Y, A340E
B5: C959: reference PfHPPD mutant E335P (protein)
chain: B1 chain with Y336G, A339K, Q340A
modifications: HPPD variant - C959
B6: PfHPPD: wild-type Pseudomonas fluorescens HPPD, reference protein (protein)
chain: B1 chain with P335E, Y336G, A339K, Q340A
modifications: Pseudomonas Fluorescens
B7: K407: PfHPPD variant A188G, R189E, P215N, E335P, G336F, A340E (protein)
chain: B1 chain with A188G, R189E, P215N, Y336F, A339K, Q340E
modifications: HPPD variant - K407
notes: PfHPPD variant A188G, R189E, P215N, E335P, G336F, A340E
B8: K408: PfHPPD variant A188G, R189D, P215N, E335P, G336F, A340E (protein)
chain: B1 chain with A188G, R189D, P215N, Y336F, A339K, Q340E
modifications: HPPD variant - K408
notes: PfHPPD variant A188G, R189D, P215N, E335P, G336F, A340E
B9: K299: PfHPPD carrying only the P215L mutation, used as a second reference (protein)
chain: B1 chain with P215L, P335E, Y336G, A339K, Q340A
modifications: HPPD variant - K299
B10: K406: PfHPPD variant A188G, R189G, P215N, E335P, G336F, A340E (protein)
chain: B1 chain with A188G, R189G, P215N, Y336F, A339K, Q340E
modifications: HPPD variant - K406
notes: PfHPPD variant A188G, R189G, P215N, E335P, G336F, A340E
B11: K405: PfHPPD variant A188G, R189C, P215A, E335P, G336F, A340E (protein)
chain: B1 chain with A188G, R189C, P215A, Y336F, A339K, Q340E
modifications: HPPD variant - K405
notes: PfHPPD variant A188G, R189C, P215A, E335P, G336F, A340E
B12: K137: PfHPPD variant P215L, E335P, G336Y (protein)
chain: B1 chain with P215L, A339K, Q340A
modifications: HPPD variant - K137
notes: PfHPPD variant P215L, E335P, G336Y
B13: K203: PfHPPD variant P215L, E335P, G336Y, A340E (protein)
chain: B1 chain with P215L, A339K, Q340E
modifications: HPPD variant - K203
notes: PfHPPD variant P215L, E335P, G336Y, A340E
B14: K300: PfHPPD variant P215L, E335P, G336F, A340G (protein)
chain: B1 chain with P215L, Y336F, A339K, Q340G
modifications: HPPD variant - K300
notes: PfHPPD variant P215L, E335P, G336F, A340G

tested on: Pseudomonas fluorescens HPPD protein; assay: OD assay: HPPD activity and pI50 from HPP remaining after derivatisation with DNP; assay type: biochemical; conditions: HPPD enzyme activity of the clone
Protocol: (§1) HPPD proteins were produced and purified as described in WO2011/076882. The activity of HPPD proteins in absence or presence of HPPD inhibitors was determined using either the so called OD assay or the HGD assay.
(§2) • a) The OD assay: The HPPD activity was determined colourimetrically by measuring the amount of HPP remaining in the assay mixture at the end of the incubation period after derivatisation of HPP with 2,4-dinitrophenylhydrazine (DNP) to form an amber-brown colored 2,4-dinitrophenylhydrazone under alkaline conditions. The assay was carried out at room temperature in Greiner F-bottom 96 well microplates. The assay mixture contained 50 mM Tris-HCl pH 7.8, 0.5 mM HPP, 10 mM ascorbate, 650 units of catalase and appropriate amounts of purified HPPD enzyme in a total assay volume of 100 μl. The reaction was started by the addition of enzyme. After an incubation time of 24 minutes, the reaction was stopped by the addition of 50 μl of a solution of 0.04% DNP dissolved in 3.8 N HCl. After a further 15-minute incubation period 100 μl of a 5 N KOH solution was added to the reaction mixture and the amount of unconsumed HPP was measured photometrically at 405 nm. Enzyme activity was calculated as the difference in E405 between assays lacking enzyme (negative control) and the enzyme containing assays (ΔE405=E405(negative control)−E405). Enzyme activity (nmol substrate consumed per min) was calculated from a calibration curve generated from HPP. pI50-values (the negative log value of the concentration of inhibitor necessary to inhibit 50% of the enzyme activity in molar concentration were determined from dose-response plots of HPPD activity versus inhibitor concentration tested (5.0×10^−6, 1.0×10^−5, 2.5×10^−5, 4.0×10^−5, 7.0×10^−5, 1.0×10^−4, 2.0×10^−4 and 5.0×10^−4M) using the 4 Parameter Logistic Model or Sigmoidal Dose-Response Model of the ID Business Solutions Ltd. XLfit software suite. The result “>5.6” means that the inhibition at the lowest inhibitor concentration tested was higher than 85% and the pI50-value could therefore not be precisely calculated within in the range of concentration of inhibitor tested. The result “<2.5” means that the inhibition at the highest inhibitor concentration tested was lower than 25% and the pI50-value could therefore not be precisely calculated within in the range of concentration of inhibitor tested. “n.d.” means not determined. • b) The HGD assay: With the HGD assay HPPD activity was measured at room temperature by adding appropriate amounts of HPPD to a solution of 200 mM Tris-HCl pH 7.6, 10 mM ascorbate, 20 μM FeSO4, 650 units of catalase, 8 μg HGA dioxygenase (HGA: homogentisate) and 600 μM HPP in a total volume of 1 ml. Initial reaction rates in the absence or presence of inhibitors were determined from the increase in absorbance at 318 nm due to the formation of maleylacetoacetate (ε318=11,900 M−1 cm-1). pI50-values (the negative log value of the concentration of inhibitor necessary to inhibit 50% of the enzyme activity in molar concentration were determined from dose-response plots of HPPD activity versus inhibitor concentration tested using the 4 Parameter Logistic Model or Sigmoidal Dose-Response Model of the ID Business Solutions Ltd. XLfit software suite. Due to the UV absorption of the HPPD inhibitors tested, inhibitor concentrations >100 μM could not be tested. The result “<4” means that the inhibition at 100 μM inhibitor concentration was lower than 25% and the pI50-value could therefore not be precisely calculated within in the range of concentration of inhibitor tested. “n.d.” means not determined. The HGD assay allowed to continuously follow HPPD-catalyzed HGA formation over time was therefore used to determine the inhibition type of the HPPD inhibitors tested. […] When in the presence of an inhibitor the HPPD activity was inhibited but the inhibition was found not to […] in a time-dependent manner, the inhibitor was called reversible (abbreviation “rev”). […]

First: B1
Second: B2
The “Activity DeltaE/24 min μg Protein” value of the first is higher: 0.50 DeltaE/24 min μg Protein for the first, 0.09 DeltaE/24 min μg Protein for the second.

First: B3
Second: B4
The “Activity DeltaE/24 min μg Protein” value of the first is lower: 0.15 DeltaE/24 min μg Protein for the first, 0.50 DeltaE/24 min μg Protein for the second.

Going from B5 to B6, the “Activity DeltaE/24 min μg Protein” value rises from 0.09 DeltaE/24 min μg Protein to 0.76 DeltaE/24 min μg Protein.

Going from B7 to B8, the “Activity DeltaE/24 min μg Protein” value rises from 0.41 DeltaE/24 min μg Protein to 0.56 DeltaE/24 min μg Protein.

First: B9
Second: B10
The “Activity DeltaE/24 min μg Protein” value of the first is lower: 0.17 DeltaE/24 min μg Protein for the first, 0.52 DeltaE/24 min μg Protein for the second.

Going from B11 to B12, the “Activity DeltaE/24 min μg Protein” value falls from 0.16 DeltaE/24 min μg Protein to 0.12 DeltaE/24 min μg Protein.

First: B13
Second: B14
The “Activity DeltaE/24 min μg Protein” value of the first is higher: 0.08 DeltaE/24 min μg Protein for the first, 0.01 DeltaE/24 min μg Protein for the second.

same assay, conditions: inhibitor Cmpd. 2

Going from B2 to B3, the “tolerance (pI50) Cmpd. 2” value rises from 5.0 to 5.4.

B7 and B8 are the same in “tolerance (pI50) Cmpd. 2” value: 5.7 for the first, 5.7 for the second.

First: B10
Second: B11
The “tolerance (pI50) Cmpd. 2” value of the first is higher: 5.6 for the first, 4.9 for the second.

With B14 the “tolerance (pI50) Cmpd. 2” value was 3.8.

With B6 the “tolerance (pI50) Cmpd. 2” value was greater than 5.6.
For B9, the “tolerance (pI50) Cmpd. 2” value was greater than 5.6.

same assay, conditions: inhibitor diketonitrile (DKN), negative log of molar concentration

Going from B1 to B2, the “tolerance (pI50) DKN” value falls from 3.3 to 3.0.

Compared with B4, B5 is higher in “tolerance (pI50) DKN” value: 3.1 for the first, 5.5 for the second.

Going from B9 to B11, the “tolerance (pI50) DKN” value falls from 5.1 to 3.3.

In the case of B12, the “tolerance (pI50) DKN” value is reported as 2.8.

In the case of B3, the “tolerance (pI50) DKN” value is reported as less than 2.5.
B6 was tested, and the “tolerance (pI50) DKN” value was greater than 5.6.
In the case of B7, the “tolerance (pI50) DKN” value is reported as less than 2.5.
With B8 the “tolerance (pI50) DKN” value was less than 2.5.
With B10 the “tolerance (pI50) DKN” value was less than 2.5.
B13 was tested, and the “tolerance (pI50) DKN” value was less than 2.5.
With B14 the “tolerance (pI50) DKN” value was less than 2.5.

same assay, conditions: inhibitor mesotrione (MST)

B1 and B2 are the same in “tolerance (pI50) MST” value: 3.7 for the first, 3.7 for the second.

First: B3
Second: B4
The “tolerance (pI50) MST” value of the first is lower: 3.4 for the first, 3.7 for the second.

B7 and B8 are the same in “tolerance (pI50) MST” value: 3.6 for the first, 3.6 for the second.

First: B9
Second: B10
The “tolerance (pI50) MST” value of the first is higher: 5.5 for the first, 3.5 for the second.

First: B11
Second: B12
The “tolerance (pI50) MST” value of the first is higher: 3.7 for the first, 3.4 for the second.

For B13, the “tolerance (pI50) MST” value was 3.0.

For B5, the “tolerance (pI50) MST” value was greater than 5.6.
B6 was tested, and the “tolerance (pI50) MST” value was greater than 5.6.
In the case of B14, the “tolerance (pI50) MST” value is reported as less than 2.5.

same assay, conditions: inhibitor tembotrione (TBT)

Compared with B1, B2 is lower in “tolerance (pI50) TBT” value: 4.8 for the first, 4.5 for the second.

First: B3
Second: B4
The “tolerance (pI50) TBT” value of the first is lower: 4.4 for the first, 4.8 for the second.

B7 and B8 are the same in “tolerance (pI50) TBT” value: 4.6 for the first, 4.6 for the second.

Compared with B10, B11 is higher in “tolerance (pI50) TBT” value: 4.5 for the first, 4.8 for the second.

First: B12
Second: B13
The “tolerance (pI50) TBT” value of the first is higher: 4.7 for the first, 3.9 for the second.

B14 was tested, and the “tolerance (pI50) TBT” value was 3.1.

In the case of B6, the “tolerance (pI50) TBT” value is reported as greater than 5.6.
For B9, the “tolerance (pI50) TBT” value was greater than 5.6.

tested on: Pseudomonas fluorescens HPPD protein; assay: HGD assay: HPPD activity coupled to HGA dioxygenase, pI50 and type of inhibition (time-course); assay type: biochemical; conditions: not given
Protocol: as §1, §2

B1 was tested, and the “mechanism of inhibition by Cmpd. 2, time-course of inhibition” value (“mechanism of inhibition” below) was “fully reversible inhibitor”.
In the case of B2, the “mechanism of inhibition” value is reported as “fully reversible inhibitor”.
For B3, the “mechanism of inhibition” value was “fully reversible inhibitor”.
For B4, the “mechanism of inhibition” value was “fully reversible inhibitor”.
In the case of B12, the “mechanism of inhibition” value is reported as “fully reversible inhibitor”.
With B13 the “mechanism of inhibition” value was “fully reversible inhibitor”.
B14 was tested, and the “mechanism of inhibition” value was “fully reversible inhibitor”.

same assay, conditions: inhibitor Cmpd. 1; HGD assay

In the case of B4, the “tolerance (pI50) Cmpd. 1” value is reported as 5.5.

same assay, conditions: inhibitor Cmpd. 2; HGD assay

First: B1
Second: B4
The “tolerance (pI50) Cmpd. 2” value of the first is higher: 6.2 for the first, 5.9 for the second.

First: B12
Second: B13
The “tolerance (pI50) Cmpd. 2” value of the first is higher: 5.5 for the first, 5.3 for the second.

For B14, the “tolerance (pI50) Cmpd. 2” value was 4.3.

same assay, conditions: inhibitor Cmpd. 4; HGD assay

B4 was tested, and the “tolerance (pI50) Cmpd. 4” value was 6.9.
